Measured values from patent US20070092940A1.

Biological target: rabbit albumin (rabbit) (UniProt P49065)
Experiment: BIAcore kinetic analysis

rabbit albumin (rabbit), sequence (P49065 25-608 limits assumed): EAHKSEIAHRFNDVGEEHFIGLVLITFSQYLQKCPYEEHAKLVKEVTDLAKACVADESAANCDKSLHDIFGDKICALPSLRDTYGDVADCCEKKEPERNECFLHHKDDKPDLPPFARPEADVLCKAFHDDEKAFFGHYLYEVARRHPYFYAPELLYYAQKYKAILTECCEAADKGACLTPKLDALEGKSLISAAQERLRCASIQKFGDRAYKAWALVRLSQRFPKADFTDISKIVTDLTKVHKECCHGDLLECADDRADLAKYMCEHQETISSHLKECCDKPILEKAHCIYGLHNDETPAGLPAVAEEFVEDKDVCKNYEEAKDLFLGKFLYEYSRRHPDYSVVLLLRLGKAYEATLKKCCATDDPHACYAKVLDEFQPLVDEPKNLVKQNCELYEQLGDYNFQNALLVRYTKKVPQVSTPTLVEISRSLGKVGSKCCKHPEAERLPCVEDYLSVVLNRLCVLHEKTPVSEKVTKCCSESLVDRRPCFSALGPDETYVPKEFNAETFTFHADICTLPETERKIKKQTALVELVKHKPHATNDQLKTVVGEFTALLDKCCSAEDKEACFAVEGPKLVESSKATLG

Kd: 124 nM
Substance: ABP-hu4D5Fabv8 wild type
